Tested on: MS2 coat protein
Test: apparent KD of MS2 coat protein; higher = weaker reporter binding
Details: Eterna round: R107; input ligand: arginine 13.2 mM
Procedure, shortened: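 Designed RNA switches were made by on-chip transcription from Illumina sequencing clusters and then titrated with SNAP-549-labelled MS2 coat protein. Twofold steps ran from 0.7 or 1.5 nM to 3 µM, each lasting 0.8–1.5 h early and 10–20 min late, in 100 mM Tris-HCl pH 7.5, 80 mM KCl, 4 mM MgCl2, without or with constant ligand. Apparent KD is the per-design median of normalised cluster binding-curve fits.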

Sequence	apparent KD of MS2 coat protein [nM]
CCUAUGCAGUCGGCCGCCACUGAUAACGUUAUCGUUACCUCAGAAACAUGAGGAUCACCCAUGUACAGGACCGGGACUGUAUAGG [Ex Tryptophan B 19]	14.4
AGUAAUCUAAGAGAUACCAGACGGUAUAUAACAUGAGGAUCACCCAUGUUUUGGGUGUACGUCCCUUGGCAGCUCAAAAUGAUAA [#06 Same State - Theophylline B]	123
CUAAGAGCGGCGGCCGCCACUGGUAACCGAGAGGAGGAGCUUCUGAACAUGAGGAUCACCCAUGUCAGGACCGGGUCGUCUUAGA [Same State - Tryptophan B]	15.5
AUAACAUGAGGAUCACCCAUGUAAGGUGAUACCAGACGAAGUAAAGUCCCUUGGCAGCACAAGUAAAGUUACGAAUAUUGAUAGA [JR_SSTheophyA_Sub004]	62.2
CCGUCACAUGAGGAUCACCCAUGUGCGGAAGGAGCGGACGAAAGUCCAGGUAGGUCGCCGUAUAGCCAAUGACCAGCAGUGUCGG [XARG-A 21]	12.1
GUGGCGAUCACGGCCGCCACUGAGCAGGUCGAGCUUGACAUGAGGAUCACCCAUGUCUGACGAUACAGGACCGGGUGAUCUCCGC [Titiinanon]	16.5
UAUAUAUAUCACGAACUGUGGUGUAUGUCUCGAGGACCGGUACGGCCGCCACUCGCGCGGCCUCACAUGAGGAUCACCCAUGUCC [XTryp A #5]	66.9
AGCUCGCAUCCUCUAGCGUCAAAGACGCGUCGAGGACCGGUACGGCCGCCACUCGACGUGAGGAUCACCCACGUCUAAGCGAGCA [TrypAX 10 #SwitchBubble #AlternativeMS2 #MS2Late #CuTurnoff]	19.7
AACAUGAGGAUCACCCAUGUCUGAACUGAAGGAGCGCUAAAUAAGGCAGGUAGGUCGCGGAAUUUUGUGUGCAUAUGCAUAUGGG [9.I]	28.1
CGCGGACCACCUGAUACCAGCGCAGUCAUGCAUGAACCCAACAUGAGGAUCACCCAUGUACGCCCUUGGCAGCAGGGAAAAGUCG [theeternabot_exclusion_MS2_Theo_B_8]	76.4
CUCUGAGUGAGGAAUCACUCAGAGGCGGAUACCAGCGAGGUCCAUCGCCCUUGGCAGCCGAACAUGAGGAUCACCCAUGUCGGUA [#1 Same State - Theophylline A Attempt #23 (HarryS)]	9.44
GUCCAAAGGUCGGCCGCCACUGUAGAGUGUGUUCUUUCACAUGAGGAUCACCCAUGUUGUUAUUAUAGGACCGGGAUUGUAGGAC [#21 Exclusion Tryptophan B]	17.2
AGUCUUAGUGGAAGGAGCGCAGUCAUAACAUGAGGAUCACCCAUGUCGAGGUGAGGGUCAUUGCAGGUAGGUCGCCAUAAUAGGA [#16 Same State - Arginine B]	19.3
GCGUACGAUCGGGAUACCAGACAUUGCCGUUAGGGUGAACUUGAGGAUCACCCAAGUUUUGUCCCUUGGCAGCCCGAUCGUACGC [ETB NP+V+V2 #9 Diff Apt, Same Structure]	9.92
UACAUGAGGAUCACCCAUGUCCCAUGUGAACGAGGACCGGUACGGCCGCCACUCGAAUAAGGCGGCACAUGAGGAUCACCCACAU [AstrosSSTry#2]	283
UACCCAUAGGGAAGGAGCGCGCUAACAUGAGGAUCACCCAUGUAAAGGGUUUCUGGCUUAGCGCAGGUAGGUCGCCCUAUGGGUA [#10 Exclusion - Arginine B]	196
UAAUCCGGUCCUCGAUAAUCCUCAUGUAAACGAGGACCGGUACGGCCGCCACUCGAUAACAUGAGGAUCACCCAUGUAAUAAUAA [|T'-M'-Trp-Ms2|_Design14]	47.5
AGUUGACAAAAGUCAGCAACAUGAUCCGAAGGAGCGGGCGAAAGCCCAGGUAGGUCGCGGACAUGAGGAUCACCCAUGUCUCCUU [ArgAX 3 #OpenEnded #Sliding]	46.6
GGUGUUACGUCGGCCGCCACUAUACUACAUGAGGAUCACCCAUGUCAUCCCUUCAAUUGGUAGCCUAGGACCGGGACAGAAUUCG [theeternabot_exclusion_MS2_Trp_B_8]	33.2
CUACAUUUGUAGAAACCGGUCAACAAUAAUCGAGGACCGGUACGGCCGCCACUCGUAUAAUUUAUUACAUGAGGAUCACCCAUGU [Tryptophan A 2]	13.6
ACAUGAGGAUCACCCAUGUGAAGGCACGAUACCAGCUGAUCCCGUGGCCCUUGGCAGCGUCACGUUUGGUCCCGCGGAUGAGACG [crcmullin]	20.8
UGGUCACUAGGAGAUACCAGCCGACAUGAGGAUCACCCAUGUAACCGGCGUCCUCCCUUAGGCCCUUGGCAGCUCGUAGUUGCUC [Vebice]	11.9
GGUAGCAGGACUGAUACCAGUCCAGCGAAUCAUACGACGCAACAUGAGGAUCACCCAUGUGACCCUUGGCAGCAGUCUGCUACCG [Same State Theophylline B GF 29]	28.9
UACUUGCUGACGGCCGCCACUAGUACAUGAGGAUCACCCAUGUACGGUCGCCCGGUGUGAUCCACUAGGACCGGGUCAGCAAGAU [(Trp1)-(Ms2)-(T)'-(M)'-(Trp2)_Design24]	38.4
UAAAAUAUCUGGGUGUAGGUAAUAACAGAUACCAGCCAGAUAACUGGCCCUUGGCAGCUGAAAACAUGAGGAUCACCCAUGUAAA [TheoAS 22 #OpenEnded #Ms2Late]	28.1
UCAUGACAUGGGAAUAAAUAAGAAGGCGAAGGAGCGUGAAGAUUCACAGGUAGGUCGCGCAAAAUACAUGAGGAUCACCCAUGUU [JR_Nu_ExcArginiA_Sub032]	33
GGGUAUGAUCCGGAUACCAGCGAACAUGAGGAUCACCCAUGUGACCUAAGAUAGGCUAAACGCCCUUGGCAGCCGAGAUUGCGUU [Same State Theophylline B GF7]	32.4

Same assay, conditions: Eterna round: R107; input ligand: none

Sequence	apparent KD of MS2 coat protein [nM]
CUAAGAGCGGCGGCCGCCACUGGUAACCGAGAGGAGGAGCUUCUGAACAUGAGGAUCACCCAUGUCAGGACCGGGUCGUCUUAGA [Same State - Tryptophan B]	13.8
CCGUCACAUGAGGAUCACCCAUGUGCGGAAGGAGCGGACGAAAGUCCAGGUAGGUCGCCGUAUAGCCAAUGACCAGCAGUGUCGG [XARG-A 21]	12.6
GUGGCGAUCACGGCCGCCACUGAGCAGGUCGAGCUUGACAUGAGGAUCACCCAUGUCUGACGAUACAGGACCGGGUGAUCUCCGC [Titiinanon]	21.7
AGCUCGCAUCCUCUAGCGUCAAAGACGCGUCGAGGACCGGUACGGCCGCCACUCGACGUGAGGAUCACCCACGUCUAAGCGAGCA [TrypAX 10 #SwitchBubble #AlternativeMS2 #MS2Late #CuTurnoff]	25.5

Source: the supplement of paper PMC9170038
